Measurements from paper PMC2928392 (Pharmacogenetics and Genomics, 2009).

B1: UDP-glucuronosyltransferase 2A1 (UGT2A1) (Homo sapiens) (protein)
chain: GNVLIWPMEGSHWLNVKIIIDELIKKEHNVTVLVASGALFITPTSNPSLTFEIYKVPFGKERIEGVIKDFVLTWLENRPSPSTIWRFYQEMAKVIKDFHMVSQEICDGVLKNQQLMAKLKKSKFEVLVSDPVFPCGDIVALKLGIPFMYSLRFSPASTVEKHCGKVPYPPSYVPAVLSELTDQMSFTDRIRNFISYHLQDYMFETLWKSWDSYYSKALGGLLLCCPGWSAVADLGSLQPLLPGFKRFSRLSLHCSWDYRLPAGRPTTLCETMGKAEIWLIRTYWDFEFPRPYLPNFEFVGGLHCKPAKPLPKVLWRYKGKKPATLGNNTQLFDWIPQNDLLGHPKTKAFITHGGTNGIYEAIYHGVPMVGVPMFADQPDNIAHMKAKGAAVEVNLNTMTSVDLLSALRTVINEPSYKENAMRLSRIHHDQPVKPLDRAVFWIEFVMRHKGAKHLRVAAHDLTWFQYHSLDVIGFLLVCVTTAIFLVIQCCLFSCQKFGKIGKKKKRE
B2: UDP-glucuronosyltransferase 2A2 (UGT2A2) (Homo sapiens) (protein)
chain: MVSIRDFTMPKKFVQMLVFNLTLTEVVLSGNVLIWPTDGSHWLNIKIILEELIQRNHNVTVLASSATLFINSNPDSPVNFEVIPVSYKKSNIDSLIEHMIMLWIDHRPTPLTIWAFYKELGKLLDTFFQINIQLCDGVLKNPKLMARLQKGGFDVLVADPVTICGDLVALKLGIPFMYTLRFSPASTVERHCGKIPAPVSYVPAALSELTDQMTFGERIKNTISYSLQDYIFQSYWGEWNSYYSKILGRPTTLCETMGKAEIWLIRTYWDFEFPRPYLPNFEFVGGLHCKPAKPLPKEMEEFIQSSGKNGVVVFSLGSMVKNLTEEKANLIASALAQIPQKVLWRYKGKKPATLGNNTQLFDWIPQNDLLGHPKTKAFITHGGTNGIYEAIYHGVPMVGVPMFADQPDNIAHMKAKGAAVEVNLNTMTSVDLLSALRTVINEPSYKENAMRLSRIHHDQPVKPLDRAVFWIEFVMRHKGAKHLRVAAHDLTWFQYHSLDVIGFLLVCVTTAIFLVIQCCLFSCQKFGKIGKKKKRE

How the values were obtained:
[1] = target: T1, UDP-glucuronosyltransferase 2A3 (UGT2A3) (Homo sapiens, UniProt Q6UWM9); assay: glucuronidation rate at […], radiochemical HPLC; assay type: cell-based
T1 sequence (Q6UWM9 24-527): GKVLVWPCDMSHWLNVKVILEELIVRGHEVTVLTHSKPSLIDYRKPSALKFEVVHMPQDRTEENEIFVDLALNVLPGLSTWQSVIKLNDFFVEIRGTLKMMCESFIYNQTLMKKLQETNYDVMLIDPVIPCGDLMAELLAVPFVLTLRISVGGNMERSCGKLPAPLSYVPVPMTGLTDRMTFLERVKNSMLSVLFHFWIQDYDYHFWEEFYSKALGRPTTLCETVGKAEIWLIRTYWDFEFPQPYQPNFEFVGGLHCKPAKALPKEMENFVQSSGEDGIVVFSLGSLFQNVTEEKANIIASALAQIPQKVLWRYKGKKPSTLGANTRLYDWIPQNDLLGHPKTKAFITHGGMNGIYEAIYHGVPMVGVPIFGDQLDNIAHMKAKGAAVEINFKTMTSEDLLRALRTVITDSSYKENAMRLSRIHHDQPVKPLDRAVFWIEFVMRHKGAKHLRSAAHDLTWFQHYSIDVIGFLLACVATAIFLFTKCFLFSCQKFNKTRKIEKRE

[2] = substrate: O=C(O)[C@H]1O[C@H](OP(=O)(O)OP(=O)(O)OC[C@H]2O[C@@H](n3ccc(=O)[nH]c3=O)[C@H](O)[C@@H]2O)[C@H](O)[C@@H](O)[C@@H]1O; assay: cells, lysate or membranes; details: MgCl2 ([…]) co-substrate
glucuronidation kinetics [3] = substrate: O=[N+]([O-])c1ccc(O)cc1; assay: glucuronidation kinetics; assay type: cell-based, Homo sapiens; details: UDP-glucuronic acid; MgCl2 ([…])
glucuronidation kinetics [4] = substrate: Cc1cc(=O)oc2cc(O)ccc12; assay: glucuronidation kinetics; assay type: cell-based, Homo sapiens; details: UDP-glucuronic acid; MgCl2 ([…])
glucuronidation kinetics [5] = substrate: Oc1ccc(-c2ccccc2)cc1; assay: glucuronidation kinetics; assay type: cell-based, Homo sapiens; details: UDP-glucuronic acid; MgCl2 ([…])

| Molecule | glucuronidation rate at 200 μM, radiochemical HPLC (4.9 pmol/min/mg) [1] | Km [2] | Vmax [2] | Km (glucuronidation kinetics [3]) | Vmax (glucuronidation kinetics [3]) | Km (glucuronidation kinetics [4]) | Vmax (glucuronidation kinetics [4]) | Km (glucuronidation kinetics [5]) | Vmax (glucuronidation kinetics [5]) |
| --- | --- | --- | --- | --- | --- | --- | --- | --- | --- |
| C[C@H](CCC(=O)O)[C@H]1CC[C@H]2[C@@H]3C[C@H](O)[C@@H]4C[C@H](O)CC[C@]4(C)[C@H]3CC[C@]12C [HDCA, hyodeoxycholic acid] | UGT2A3 exhibited glucuronidating activity only towards HDCA |  |  |  |  |  |  |  |  |
| B1 |  | 39.5 µM | 292 ± 12 pmol/min/mg | 303 µM | 141 ± 5 pmol/min/mg |  |  |  |  |
| B2 |  | 55.1 µM | 91.4 ± 3 pmol/min/mg | 4469 µM | 69 ± 3 pmol/min/mg | 2998 µM | 39 ± 0.9 pmol/min/mg | 245 µM | 124 ± 2 pmol/min/mg |
